Earlier results, collected in patent publication US20080095848A1, “Pharmaceutical Composition For Topical Use In Form Of Xerogels Or Films And Methods For Production” (Ludwig-maximilian-University, priority 2004, published 2008).

Conditions: aqueous formulation, within two weeks

B1: EGF: growth factor; wound healing factor, protein unstable in aqueous formulation (protein, UniProt P01133 23-1207, looked up)
Pro-epidermal growth factor: PQHWSCPEGTLAGNGNSTCVGPAPFLIFSHGNSIFRIDTEGTNYEQLVVDAGVSVIMDFHYNEKRIYWVDLERQLLQRVFLNGSRQERVCNIEKNVSGMAINWINEEVIWSNQQEGIITVTDMKGNNSHILLSALKYPANVAVDPVERFIFWSSEVAGSLYRADLDGVGVKALLETSEKITAVSLDVLDKRLFWIQYNREGSNSLICSCDYDGGSVHISKHPTQHNLFAMSLFGDRIFYSTWKMKTIWIANKHTGKDMVRINLHSSFVPLGELKVVHPLAQPKAEDDTWEPEQKLCKLRKGNCSSTVCGQDLQSHLCMCAEGYALSRDRKYCEDVNECAFWNHGCTLGCKNTPGSYYCTCPVGFVLLPDGKRCHQLVSCPRNVSECSHDCVLTSEGPLCFCPEGSVLERDGKTCSGCSSPDNGGCSQLCVPLSPVSWECDCFPGYDLQLDEKSCAASGPQPFLLFANSQDIRHMHFDGTDYGTLLSQQMGMVYALDHDPVENKIYFAHTALKWIERANMDGSQRERLIEEGVDVPEGLAVDWIGRRFYWTDRGKSLIGRSDLNGKRSKIITKENISQPRGIAVHPMAKRLFWTDTGINPRIESSSLQGLGRLVIASSDLIWPSGITIDFLTDKLYWCDAKQSVIEMANLDGSKRRRLTQNDVGHPFAVAVFEDYVWFSDWAMPSVMRVNKRTGKDRVRLQGSMLKPSSLVVVHPLAKPGADPCLYQNGGCEHICKKRLGTAWCSCREGFMKASDGKTCLALDGHQLLAGGEVDLKNQVTPLDILSKTRVSEDNITESQHMLVAEIMVSDQDDCAPVGCSMYARCISEGEDATCQCLKGFAGDGKLCSDIDECEMGVPVCPPASSKCINTEGGYVCRCSEGYQGDGIHCLDIDECQLGEHSCGENASCTNTEGGYTCMCAGRLSEPGLICPDSTPPPHLREDDHHYSVRNSDSECPLSHDGYCLHDGVCMYIEALDKYACNCVVGYIGERCQYRDLKWWELRHAGHGQQQKVIVVAVCVVVLVMLLLLSLWGAHYYRTQKLLSKNPKNPYEESSRDVRSRRPADTEDGMSSCPQPWFVVIKEHQDLKNGGQPVAGEDGQAADGSMQPTSWRQEPQLCGMGTEQGCWIPVSSDKGSCPQVMERSFHMPSYGTQTLEGGVEKPHSLLSANPLWQQRALDPPHQMELTQ
modifications: Pro-epidermal growth factor
In the case of B1, the loss of activity is listed as 40%.
